# Assay results from PMC5995851, “Conformational rearrangements of the C1 ring in KaiC measure the timing of assembly with KaiB” (Scientific Reports, 2018).
# Where a chain is given by its changes, count along the chain named.
# T1: KaiC^S157W-D/T (S157W/S431D, pS/T mimic) (Synechococcus elongatus, UniProt Q79PF4 1-519, S157W | S431D)
# T1 construct: Circadian clock protein KaiC, Synechococcus elongatus, with C1 and C2 domains; Trp probe S157W and phospho-mimicking S431D
# T1 sequence: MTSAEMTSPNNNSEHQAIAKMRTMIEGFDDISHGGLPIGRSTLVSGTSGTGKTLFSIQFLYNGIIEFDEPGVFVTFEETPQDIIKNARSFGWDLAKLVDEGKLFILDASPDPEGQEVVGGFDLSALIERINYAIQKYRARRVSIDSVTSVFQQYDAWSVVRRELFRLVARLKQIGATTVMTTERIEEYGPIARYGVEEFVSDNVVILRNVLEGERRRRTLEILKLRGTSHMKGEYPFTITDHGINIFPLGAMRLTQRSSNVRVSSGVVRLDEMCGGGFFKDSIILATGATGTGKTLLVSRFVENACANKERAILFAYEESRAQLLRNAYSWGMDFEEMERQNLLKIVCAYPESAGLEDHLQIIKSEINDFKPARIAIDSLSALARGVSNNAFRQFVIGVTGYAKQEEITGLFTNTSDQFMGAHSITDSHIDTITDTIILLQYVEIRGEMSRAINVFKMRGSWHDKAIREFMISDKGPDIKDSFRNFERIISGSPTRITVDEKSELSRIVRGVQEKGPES
# T2: KaiC^S157W-D/E (S157W/S431D/T432E, pS/pT mimic) (Synechococcus elongatus, UniProt Q79PF4 1-519, S157W | S431D | T432E)
# T2 construct: Circadian clock protein KaiC, Synechococcus elongatus, with C1 and C2 domains; Trp probe S157W and phospho-mimicking S431D/T432E
# T2 sequence: T1 sequence with T432E
# B1: KaiB (wild type) (natural protein, Synechococcus elongatus, UniProt Q79PF5 1-102, looked up)
# chain: MSPRKTYILKLYVAGNTPNSVRALKTLKNILEVEFQGVYALKVIDVLKNPQLAEEDKILATPTLAKVLPLPVRRIIGDLSDREKVLIGLDLLYGELQDSDDF
# notes: Circadian clock protein KaiB, Synechococcus elongatus, wild type
# Assays:
# [1] = biological target: T1, KaiC^S157W-D/T (S157W/S431D, pS/T mimic); assay: tryptophan (W157) fluorescence quenching; KaiC^S157W phospho-mimicking mutants with or without an equimolar concentration of KaiB (monomer basis), spectra after 24 h incubation at 30 °C; 50 mM Tris, 150 mM NaCl, 5 mM MgCl2, 0.5 mM EDTA, 1 mM ATP, pH 8.0; excitation 295 nm; conditions: both partners purified
# [2] = biological target: T2, KaiC^S157W-D/E (S157W/S431D/T432E, …); assay: other fluorescence titration; time-resolved W157 fluorescence at 30 °C after addition of KaiB to KaiC pre-incubated at 30 °C for at least 2 h; KaiC^S157W-D/E fixed at 3.5 µM, KaiB equimolar or 0.9-10.5 µM; 1 mM ATP buffer, pH 8.0; conditions: both partners purified
binder,measurement,setting,value
B1,binding result,[1],binds
same,t1/2 of the FIapp decrease after addition of equimolar KaiB,[2],2.4 h
